pKd: −log10 of the molar value.
Columns and labels:
[1] = test system: TH1N1 (influenza A H1N1 target protein; protein identity not stated in the material) (Influenza A virus H1N1 (strain not stated)); test: SPR
[2] = test system: TH1N1 (influenza A H1N1 target protein; protein identity not stated in the material) (Influenza A virus H1N1 (strain not stated)); test: electrochemical DPV (Apta-DEPSOR)
[3] = test system: TH3N2 (influenza A H3N2 target protein; protein identity not stated in the material) (Influenza A virus H3N2 (strain not stated)); test: SPR
[4] = test system: TH3N2 (influenza A H3N2 target protein; protein identity not stated in the material) (Influenza A virus H3N2 (strain not stated)); test: electrochemical DPV (Apta-DEPSOR)

| Sequence | pKd [1] | binding signal [2] | pKd [3] | binding signal (fold lower signal than with TH3N2) [2] | binding signal [4] | binding signal (fold lower signal than with TH1N1) [4] |
| --- | --- | --- | --- | --- | --- | --- |
| AGCAGCACAGAGGTCAGATGAGGTGATGAGATTTGTACCTCTCGCGGCACCCTATCGCTGCTACCGTGAA [Apt02>TH1N1] | 7.24 | 2.26 µA (Ipc) | – | – | – | – |
| AGCAGCACAGAGGTCAGATGATTGGATCGTGACGGTTGTTGGGGCTCCGCCTATCGCTGCTACCGTGAA [Apt01>TH1N1] | 4.46 | 0.85 µA (Ipc) | – | – | – | – |
| AGCAGCACAGAGGTCAGATGCTAGCCGTGAGCGTGGTGAGCTCGGTTGACCCTATCGCTGCTACCGTGAA [Apt01>TH3N2] | – | – | 9.85 | 9 | 1.73 µA (Ipc) | – |
| AGCAGCACAGAGGTCAGATGGCGCGGGCGGTGCGTCGGTGTCCCGCTGGCCTATCGCTGCTACCGTGAA [Apt03>TH3N2] | – | – | 9.22 | – | 1.11 µA (Ipc) | – |
| AGCAGCACAGAGGTCAGATGGTGGTTGTTTTGGGCGAAGTGGCCATGGTCCCTATCGCTGCTACCGTGAA [Apt02>TH3N2] | – | – | 8.77 | – | 1.16 µA (Ipc) | – |
| AGCAGCACAGAGGTCAGATGTAGGTCGTACTCTGGCGGCCTGTTTGGCCCTATCGCTGCTACCGTGAA [Apt03>TH1N1] | 10.09 | 3.37 µA (Ipc) | – | – | – | 5 |
| AGCAGCACAGAGGTCAGATGTCTGCAGCGTGCAGGGCTGTGTGCTTACCCCCTATCGCTGCTACCGTGAA [Apt04>TH3N2] | – | – | 10.06 | – | 1.61 µA (Ipc) | – |
| AGCAGCACAGAGGTCAGATGTGTGCGTGCTTGGGGTATAGTCGGGTCGGCCTATCGCTGCTACCGTGAA [Apt04>TH1N1] | 8.80 | 1.23 µA (Ipc) | – | – | – | – |
